{
  "source": "patent US11517583B2",
  "about": "“Trans-splicing RNA (tsRNA)” (NATIONAL UNIVERSITY OF SINGAPORE, priority 2016, dated 2022)",
  "key": {"[1]": {"tested_on": "HHRz cleavage motif at tsRNA 3′ end", "test": "stem-loop primer based rt-RT-PCR of hammerhead ribozyme (HHRz) cleavage", "format": "cell-based", "description": "FIG. 3 Improved stability at 3′ end of the RNA improves 5′ trans-splicing in correlation with cleavage of hammerhead ribozyme. […] 145. The conserved motifs of stem Ia, Ib and II are highlighted in boxes and stem Ill is designed as a perfect complement to the 3′ end of the ΔBD to make the HH Rz structure. Cleavage motif GUC is shown with a scissor icon. […] R2, correlation coefficient. n=3, linear regression analysis.\nThat was surprising as the uncleaved RNA comprises a polyA tail and is expected to be exported to the cytoplasm thereby lowering its nuclear concentration and the rate of trans-splicing. We investigated HHRz cleavage by quantifying the cleaved RNA 3′ end using stem-loop primer based rt-RT-PCR (FIG. 3a). This method was proven to efficiently discriminate between perfect primer-matching and extended RNA 3′ ends. The observed 6.2 cycle difference indicated a ribozyme cleavage rate above 90% yielding trans-splicing RNA with an unstructured 3′ terminal BD (FIG. 3a). Unstructured ends of antisense RNA have been reported to be associated with both fast target binding and degradation. […]"}, "[2]": {"tested_on": "AFP pre-mRNA (AFP_E3-E6 mini-gene)", "test": "real-time RT-PCR (TaqMan) quantification of trans-splicing towards over-expressed AFP mini-gene in HepG2 cells", "format": "cell-based, human", "details": "3′ER, HepG2 co-transfected with AFP mini-gene vector, 24 hours post transfection", "method": "Transfection of plasmid DNAs: HepG2 cells were transfected at ˜70-90% confluency in a 6-well plate for Western blotting, 12-well for FACS analyses and 24-well plate for all other analyses using either Lipofectamine 3000 (for FACS studies only) or Lipofectamine 2000, (Life Technologies) according to manufacturer's protocol. A total of 1 μg DNA was co-transfected or transfected in a 24-well plate format (500 ng:500 ng of ts construct: AFP_E3_E6 minigene) in over-expression studies and 1 μg of ts constructs only in endogenous studies. For 12-well and 6-well formats, the amount of total DNA was scaled up to 2 μg and 4 μg respectively. For FACS experiments, either 500 ng of pEGFP-C2 plasmid was co-transfected along with the ts and AFP mini-gene vectors to perform experiments with some 3′ER and 5′ER plasmids and dumbbells, or the GFP infused ts vectors were used along with/without AFP mini-gene for over-expression and endogenous studies respectively.\nTotal RNA Isolation: RNA was isolated 24 hours post-transfection using RNeasy plus kit (Qiagen) following the manufacturer's protocol. RNA concentrations were measured using NanoDrop 2000.\ncDNA conversion and real-time RT-PCR: 500 ng RNA from all samples was converted into cDNA using the First Strand SuperScript RTIII (Invitrogen) kit with 200 ng of random hexamers and 10 uM of dNTPs. The reaction conditions were 25° C. for 5 min, followed by 50° C. for 2 h and enzyme inactivation at 70° C. for 15 min. 20 ng of cDNA was used as template for real time RT-PCR. TaqMan quantification was performed in ABI 7900HT of the cDNAs by designing specific probe and primer sets for each cis- and trans-splicing detection. One set of probes were designed in the AFP regions; namely AFP probe exon 5 and AFP probe exon 4 to detect 3′ER and 5′ER cis and trans-splicing respectively. Primers to detect 3′ER cis-splicing along with AFP probe were FP afp exon 5 (set1) and RP afp exon 6 and for 3′ER trans-splicing were FP afp exon 5 (set1) and RP HSVtk. Primers to detect 5′ER cis-splicing along with AFP probe were FP afp exon 3 and RP afp exon 4 (set1) and for 5′ER trans-splicing were FP HSVtk (set1) and RP afp exon 4 (set1). Another set of probes were designed in the distal HSVtk region to detect 3′ER, named HSVtk probe for 3′ER and proximal HSVtk region to detect 5′ER, named HSVtk probe for 5′ER trans-splicing alone. The primers to detect 3′ER trans-splicing along with HSVtk probes were FP afp exon 5 (set2) and RP HSVtk. Primers to detect 5′ER trans-splicing along with HSVtk probes were FP HSVtk (set2) and RP afp exon 4 (set2). The number of cycles in over-expression studies and endogenous studies were 40 and 50 respectively. RT-PCR: Reverse transcription PCR was performed on the cDNA samples using Taq DNA polymerase (Fermentas) with […] of two-step PCR (30+30 cycles or 35+35 cycles) to detect 3′ and 5′ cis and trans-splicing and the bands were visualized on a 1% agarose gel. The primers used to detect 3′ER cis-splicing and mock were FP afp exon 5 (set1) and RP afp exon 6, to detect 3′ER trans-splicing were FP afp exon 5 (set1) and RP HSVtk. To detect 5′ER cis-splicing and mock were primers FP afp exon 3 and RP afp exon 4 (set1), to detect 5′ER trans-splicing were primers FP HSVtk (set1) and RP afp exon 4 (set1). […]"}},
  "data": [
    {"molecule": "p5ER_ΔBD-opt_HH: parental 5′ exon replacement tsRNA construct; unstructured mismatched BD to AFP intron 3, HSVtk, active hammerhead ribozyme (nucleic acid) DNA: GGTACCCCTCCTTCCTCCTCCTCCTCCTCCTCCTCCTATATACATATACACACACACACACACTCATACCACATTTCAGACATAAAT", "values": [
      {"measurement": "ribozyme cleavage rate", "setting": "[1]; indicated by the cycle difference", "result": "above 90%"},
      {"measurement": "cycle difference, cleaved RNA 3′ end (active versus inactive HHRz motif)", "setting": "[1]; stem-loop primer rt-RT-PCR", "result": 6.2, "unit": "cycle"}
    ]},
    {"molecule": "3ER_ΔBD-opt: parental 3′ exon replacement tsRNA construct; unstructured 50 base BD to AFP intron 5 with two mismatches, HSVtk (nucleic acid) DNA: GCTAGCACCTCTCTAAACCTAAATTAAATTTTCTTCTCTAAACCTCTTTCCTAGTTGGACTGACGTCACTCAGTCCTCCTCCTCAGC", "values": [
      {"measurement": "more potent (trans-splicing) than 3ER_BD-struc1", "setting": "[2]", "result": 4, "unit": "fold"},
      {"measurement": "stronger trans-splicing compared with 3ER_ΔBD-opt-inv", "setting": "[2]", "result": 3, "unit": "fold"},
      {"measurement": "more potent (trans-splicing) than 3ER_BD-struc2", "setting": "[2]; p=0.04", "result": 6, "unit": "fold"},
      {"measurement": "stronger trans-splicing compared with 3ER_BD-opt", "setting": "[2]; p=0.04", "result": 4, "unit": "fold"},
      {"measurement": "stronger trans-splicing compared with 3ER_BD-opt-inv", "setting": "[2]; p=0.04", "result": 30, "unit": "fold"}
    ]}
  ]
}
